These results are taken from patent publication US20190194358A1 (ARIZONA BOARD OF REGENTS A BODY CORPORATE OF THE STATE OF …, published 2019).

Ends that are not written are not given here.

For one test, the target named is T1, transferrin (human, UniProt P02787 20-698).
T1 construct: also called TRF; pooled human transferrin (Sigma)
The test is described as follows: SPR. On the technique in general: In SPR one partner is held on a chip, and binding of the other changes the refractive index at the surface.

A further test concerns the target T2, AKT1 (human, UniProt P31749 1-480, limits assumed).
T2 construct: GST fusion on the Protoarray; also called AKT1_HUMAN; human AKT1
The test is described as follows: SPR.

The next test has as its target T3, GRP58 (human, UniProt P30101 25-505, limits assumed).
T3 construct: GST fusion adsorbed on a nitrocellulose slide
T3 sequence (looked up): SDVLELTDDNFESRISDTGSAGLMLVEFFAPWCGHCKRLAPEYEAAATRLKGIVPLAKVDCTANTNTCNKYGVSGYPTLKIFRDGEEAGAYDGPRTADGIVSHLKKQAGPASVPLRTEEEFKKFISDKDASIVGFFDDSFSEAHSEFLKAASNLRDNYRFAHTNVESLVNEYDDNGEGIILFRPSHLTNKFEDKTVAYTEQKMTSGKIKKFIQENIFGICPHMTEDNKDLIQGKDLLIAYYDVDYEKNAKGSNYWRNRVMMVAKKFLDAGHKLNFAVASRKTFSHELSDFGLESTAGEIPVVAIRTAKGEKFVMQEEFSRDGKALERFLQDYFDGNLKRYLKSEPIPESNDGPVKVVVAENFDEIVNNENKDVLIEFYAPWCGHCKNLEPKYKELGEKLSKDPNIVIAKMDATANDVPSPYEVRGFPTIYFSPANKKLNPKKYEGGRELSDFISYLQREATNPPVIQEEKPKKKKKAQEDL
The test is described as follows: human protein microarray (Protoarray), fluorescence intensity.

Another test addresses T4, Fbox-21 (human, UniProt O94952 1-628).
T4 construct: GST fusion adsorbed on a nitrocellulose slide
T4 sequence (looked up): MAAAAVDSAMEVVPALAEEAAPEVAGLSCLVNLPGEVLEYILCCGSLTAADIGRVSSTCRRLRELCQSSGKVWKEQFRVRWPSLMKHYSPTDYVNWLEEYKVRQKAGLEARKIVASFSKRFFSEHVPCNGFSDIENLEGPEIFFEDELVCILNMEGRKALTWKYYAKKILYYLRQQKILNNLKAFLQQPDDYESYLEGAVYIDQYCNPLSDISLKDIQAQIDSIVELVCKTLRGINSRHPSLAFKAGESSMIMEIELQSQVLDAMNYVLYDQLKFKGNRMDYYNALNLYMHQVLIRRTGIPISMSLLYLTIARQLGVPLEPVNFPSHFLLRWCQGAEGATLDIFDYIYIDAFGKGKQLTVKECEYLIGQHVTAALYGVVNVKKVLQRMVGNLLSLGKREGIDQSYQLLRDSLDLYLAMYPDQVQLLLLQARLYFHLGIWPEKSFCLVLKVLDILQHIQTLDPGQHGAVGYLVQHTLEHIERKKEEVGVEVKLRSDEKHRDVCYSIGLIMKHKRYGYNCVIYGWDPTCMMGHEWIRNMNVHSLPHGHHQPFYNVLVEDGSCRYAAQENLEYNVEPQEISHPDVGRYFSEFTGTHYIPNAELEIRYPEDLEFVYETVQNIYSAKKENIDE
The test is described as above.

In the next test the target is T5, NADK (human, UniProt O95544).
T5 construct: GST fusion on the array
T5 sequence (looked up): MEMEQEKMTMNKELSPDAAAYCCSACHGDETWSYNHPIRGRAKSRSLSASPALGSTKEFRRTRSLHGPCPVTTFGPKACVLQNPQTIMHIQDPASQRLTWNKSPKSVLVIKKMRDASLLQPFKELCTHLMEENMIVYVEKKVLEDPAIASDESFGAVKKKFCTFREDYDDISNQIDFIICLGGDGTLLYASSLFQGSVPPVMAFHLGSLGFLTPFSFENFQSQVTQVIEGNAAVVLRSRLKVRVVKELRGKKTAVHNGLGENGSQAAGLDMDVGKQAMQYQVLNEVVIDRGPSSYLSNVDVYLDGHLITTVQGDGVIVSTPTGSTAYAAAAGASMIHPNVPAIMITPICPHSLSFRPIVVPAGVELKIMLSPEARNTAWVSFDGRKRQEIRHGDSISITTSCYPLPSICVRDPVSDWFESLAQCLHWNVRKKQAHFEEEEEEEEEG
The test is described as follows: Invitrogen ProtoArray Human Protein Microarray v4.0; biotinylated synbody, fluorescently labelled streptavidin; fluorescence intensity above background.

The target in another test is T6, ROCK2 (human, UniProt O75116).
T6 construct: GST fusion on the array
The description is as above.

The next test addresses T7, PRKAA1 (human, UniProt Q13131).
T7 construct: GST fusion on the array
Described as above.

Another test concerns the target T8, ABHD14B (human, UniProt Q96IU4).
T8 construct: GST fusion on the array
T8 sequence (looked up): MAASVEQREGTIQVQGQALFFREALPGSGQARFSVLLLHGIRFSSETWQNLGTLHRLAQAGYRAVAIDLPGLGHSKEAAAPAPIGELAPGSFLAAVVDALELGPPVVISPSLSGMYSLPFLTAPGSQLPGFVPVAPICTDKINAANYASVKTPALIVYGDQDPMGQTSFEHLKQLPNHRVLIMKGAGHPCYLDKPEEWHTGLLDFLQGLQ
Described as above.

For a further test, the target named is T9, PTK2 (human, UniProt Q05397).
T9 construct: GST fusion on the array
The test is described as above.

The target of the next test is T10, LACRT (human, UniProt Q9GZZ8).
T10 construct: GST fusion on the array
T10 sequence (looked up): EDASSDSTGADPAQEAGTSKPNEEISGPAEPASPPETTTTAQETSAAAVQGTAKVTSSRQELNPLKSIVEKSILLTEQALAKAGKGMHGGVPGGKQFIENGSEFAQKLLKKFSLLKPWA
Described as above.

T2 sequence (P31749 whole entry, the tested form may be a part): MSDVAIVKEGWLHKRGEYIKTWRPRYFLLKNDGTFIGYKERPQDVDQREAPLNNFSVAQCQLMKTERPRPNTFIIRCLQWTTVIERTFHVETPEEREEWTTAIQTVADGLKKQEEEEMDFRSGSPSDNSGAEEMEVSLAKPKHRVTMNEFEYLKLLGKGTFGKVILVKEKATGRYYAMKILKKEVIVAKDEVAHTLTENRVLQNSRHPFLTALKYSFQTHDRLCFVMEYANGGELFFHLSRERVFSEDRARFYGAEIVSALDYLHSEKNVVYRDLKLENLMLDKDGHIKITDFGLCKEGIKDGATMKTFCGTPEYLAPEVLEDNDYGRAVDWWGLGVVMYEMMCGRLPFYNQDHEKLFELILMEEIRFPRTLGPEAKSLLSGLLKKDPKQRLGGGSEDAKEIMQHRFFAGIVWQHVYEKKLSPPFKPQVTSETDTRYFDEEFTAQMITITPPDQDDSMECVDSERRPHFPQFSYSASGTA
T7 sequence (Q13131 whole entry, the tested form may be a part): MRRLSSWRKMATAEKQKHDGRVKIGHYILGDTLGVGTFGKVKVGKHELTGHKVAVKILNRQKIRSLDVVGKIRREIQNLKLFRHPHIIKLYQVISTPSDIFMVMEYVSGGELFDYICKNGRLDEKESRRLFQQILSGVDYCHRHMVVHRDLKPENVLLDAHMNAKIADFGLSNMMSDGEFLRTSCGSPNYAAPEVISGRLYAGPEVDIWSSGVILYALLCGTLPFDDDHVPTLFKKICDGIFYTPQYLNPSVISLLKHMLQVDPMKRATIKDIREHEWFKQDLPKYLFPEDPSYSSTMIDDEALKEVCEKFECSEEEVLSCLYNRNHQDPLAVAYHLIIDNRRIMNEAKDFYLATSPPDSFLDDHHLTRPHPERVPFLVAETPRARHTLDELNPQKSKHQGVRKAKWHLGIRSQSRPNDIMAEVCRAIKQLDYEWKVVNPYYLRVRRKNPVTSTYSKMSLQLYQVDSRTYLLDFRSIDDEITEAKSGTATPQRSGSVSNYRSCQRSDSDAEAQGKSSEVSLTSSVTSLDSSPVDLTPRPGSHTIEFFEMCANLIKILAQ
T9 sequence (Q05397 whole entry, the tested form may be a part): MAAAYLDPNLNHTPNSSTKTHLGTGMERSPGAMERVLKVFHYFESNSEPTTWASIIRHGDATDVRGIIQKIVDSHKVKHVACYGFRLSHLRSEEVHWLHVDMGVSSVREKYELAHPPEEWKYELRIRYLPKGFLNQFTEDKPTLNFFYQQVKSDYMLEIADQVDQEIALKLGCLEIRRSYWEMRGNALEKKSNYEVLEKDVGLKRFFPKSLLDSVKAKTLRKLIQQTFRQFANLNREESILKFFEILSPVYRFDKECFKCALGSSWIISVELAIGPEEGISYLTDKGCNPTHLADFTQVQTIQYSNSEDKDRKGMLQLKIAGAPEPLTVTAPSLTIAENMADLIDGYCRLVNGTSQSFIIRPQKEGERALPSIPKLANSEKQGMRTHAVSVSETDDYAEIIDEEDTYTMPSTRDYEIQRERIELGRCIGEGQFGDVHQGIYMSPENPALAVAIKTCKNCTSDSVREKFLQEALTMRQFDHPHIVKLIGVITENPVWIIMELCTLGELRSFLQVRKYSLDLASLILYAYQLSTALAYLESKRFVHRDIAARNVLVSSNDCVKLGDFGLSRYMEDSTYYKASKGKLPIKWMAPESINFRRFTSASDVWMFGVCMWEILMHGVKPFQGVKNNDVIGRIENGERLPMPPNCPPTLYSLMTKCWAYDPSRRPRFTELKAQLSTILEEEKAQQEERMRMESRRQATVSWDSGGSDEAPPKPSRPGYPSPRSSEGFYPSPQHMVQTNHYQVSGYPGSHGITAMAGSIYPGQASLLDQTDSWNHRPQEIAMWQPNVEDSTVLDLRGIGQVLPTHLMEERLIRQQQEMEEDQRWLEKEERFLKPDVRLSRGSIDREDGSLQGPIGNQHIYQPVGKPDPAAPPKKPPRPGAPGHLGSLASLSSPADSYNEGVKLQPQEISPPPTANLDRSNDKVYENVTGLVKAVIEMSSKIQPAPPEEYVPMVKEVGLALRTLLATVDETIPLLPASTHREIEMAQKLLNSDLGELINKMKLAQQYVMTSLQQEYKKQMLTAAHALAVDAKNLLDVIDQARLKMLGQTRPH
T1 sequence (P02787 20-698 limits assumed): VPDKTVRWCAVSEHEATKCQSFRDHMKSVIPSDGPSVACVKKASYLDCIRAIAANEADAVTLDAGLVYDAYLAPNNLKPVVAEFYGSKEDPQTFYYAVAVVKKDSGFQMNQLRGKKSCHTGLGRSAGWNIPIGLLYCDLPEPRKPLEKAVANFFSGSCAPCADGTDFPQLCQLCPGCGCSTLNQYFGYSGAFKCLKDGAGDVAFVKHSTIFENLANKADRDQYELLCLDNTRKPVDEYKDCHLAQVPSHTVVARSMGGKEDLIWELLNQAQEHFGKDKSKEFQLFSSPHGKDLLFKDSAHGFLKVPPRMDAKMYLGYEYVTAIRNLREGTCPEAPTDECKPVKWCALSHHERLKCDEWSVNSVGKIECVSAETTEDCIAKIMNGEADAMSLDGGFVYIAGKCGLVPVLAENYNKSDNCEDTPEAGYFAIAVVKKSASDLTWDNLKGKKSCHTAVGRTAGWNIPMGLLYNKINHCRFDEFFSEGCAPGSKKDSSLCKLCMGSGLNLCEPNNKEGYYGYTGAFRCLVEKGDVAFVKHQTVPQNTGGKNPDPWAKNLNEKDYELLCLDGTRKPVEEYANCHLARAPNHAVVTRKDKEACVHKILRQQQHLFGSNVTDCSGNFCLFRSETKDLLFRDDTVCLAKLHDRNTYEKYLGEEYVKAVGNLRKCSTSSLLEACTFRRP
T6 sequence (O75116 1-552 limits assumed): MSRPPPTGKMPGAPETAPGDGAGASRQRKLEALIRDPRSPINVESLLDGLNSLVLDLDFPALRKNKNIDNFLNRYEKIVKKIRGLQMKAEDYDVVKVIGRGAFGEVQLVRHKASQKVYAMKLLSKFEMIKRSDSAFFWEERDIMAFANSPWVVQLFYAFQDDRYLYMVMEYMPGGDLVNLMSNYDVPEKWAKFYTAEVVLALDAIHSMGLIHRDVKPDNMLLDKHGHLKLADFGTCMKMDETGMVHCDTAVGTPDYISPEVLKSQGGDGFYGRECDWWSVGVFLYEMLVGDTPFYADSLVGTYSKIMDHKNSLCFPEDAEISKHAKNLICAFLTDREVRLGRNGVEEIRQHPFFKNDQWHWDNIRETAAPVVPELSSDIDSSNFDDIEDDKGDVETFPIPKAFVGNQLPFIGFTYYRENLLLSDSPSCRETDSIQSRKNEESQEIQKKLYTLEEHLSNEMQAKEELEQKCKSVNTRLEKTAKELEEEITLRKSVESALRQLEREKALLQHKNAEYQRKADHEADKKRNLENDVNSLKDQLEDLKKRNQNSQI
Procedure for ABHD14B: (§1) The prescribed cover slip was placed over the array and adjusted to remove air bubbles. The array was incubated in a 50 ml conical tube, printed side up, for 1.5 hours at 4 C without shaking. The array was then removed from the conical tube inserted diagonally into the array chamber, kept on ice. 8 ml probing buffer was added to the chamber wall. The cover slip was removed and the array was incubated in probing buffer for 1 minute on ice. The probing buffer was decanted and drained. Two further washings were performed adding 8 ml probing buffer, incubating on ice for 1 minute, and decanting and draining. 5 nM fluorescently labeled streptavidin diluted in 6 ml probing buffer was incubated on the array for 30 minutes on ice in the dark, after which the solution was decanted and drained. Three wash steps were performed, each by adding 8 ml probing buffer, incubating for 1 minute on ice, decanting, and draining. The array was removed from the chamber, centrifuged at 800×g for 5 minutes at room temperature. The array was dried in the dark for 60 minutes at room temperature, after which it was scanned using a fluorescent microarray scanner and data was taken and analyzed.
Procedure for Fbox-21: as §1
Procedure for GRP58: as §1
Procedure for LACRT: as §1
Procedure for NADK: as §1
Procedure for PRKAA1: as §1
Procedure for PTK2: as §1
Procedure for ROCK2: as §1

B1: SYN23-26 (designed binder)
peptide 1: AHKVVPQRQIRHAYNRYGSG
peptide 2: FRGWAHIFFGPHVIYRGGSG
modifications: also: two chains joined by their C-termini to a branching Lys (epsilon/alpha N), Lys linker followed by Cys, Cys thiol biotinylated
notes: Lysine linker followed by cysteine; the thiol of the cysteine biotinylated for the protein array; also called anti-TRF synbody
Consider B1, for which the Kd (commonly a measure of binding affinity in units of concentration) was roughly 141 nM in the test with transferrin and roughly 1 nM with AKT1. The binding result with GRP58 is “binds”; with Fbox-21, “binds”; with NADK it was “no binding”; in the test with ROCK2, “no binding”; in the test with PRKAA1 it was “no binding”; with ABHD14B it was “no binding”. The binding result with PTK2 and with LACRT was “no binding” each time.
